Our source for the Apparent Diffusion Coefficient (D) and IC50 (read off the curve) values is US9120862.

The target in assay [1] is monoclonal antibody 3C10 (produced by hybridoma cell line ATCC deposit designation PTA-9638). Briefly: FCS competition: 2 nM Alexa488-PIVKA-II (13-27) premixed with 10 nM mAb 3C10, unlabelled PIVKA-II (13-27) added, overnight; D of the tracer (high D = tracer displaced).
For assay [2] the target is unchanged. In words: FCS competition: 2 nM Alexa488-PIVKA-II (13-27) tracer + 10 nM mAb 3C10, competitor titrated; apparent diffusion coefficient of the tracer.

Bridge positions count the residues as written; N and C are the ends. Ends that are not written are not given here.

LERECVEETCSYEEA (disulfide 5-10 (inferred)) [PIVKA-II (13-27) peptide, unlabelled (positive control competitor)]: in assay [1], the Apparent Diffusion Coefficient (D) is 174 um^2/sec. Besides, the IC50 (read off the curve) in assay [2] was found to be 50 nM.
